± gives the uncertainty stated by the source.
Assay: self-splicing fitness, log relative to wild type (ln ratio); higher = more splicing; Tetrahymena group I intron in knt gene, E. coli kanamycin selection, DiMSum; sequences stand for … in CUCUCU…GGAGGGAAAAGUUAUCAGGCAUGCACCUGGUAGCUAGUCUUUAAACCAAUAGAUUGCAUCGGUUUAAAAGGCAAGACCGUCAAAUUGCGGGAAAGGGGUCAACAGCCGUUCAGUACCAAGUCUCAGGGGAAACUUUGAGAUGGCCUUGCAAAGGGUAUGGUAAUAAGCUGACGGACAUGGUCCUAACCACGCAGCCAAGUCCUAAGUCAACAGAUCUUCUGUUGAUAUGGAUGCAGUUCACAGACUAAAUGUCGGUCGGGGAAGAUGUAUUCUUCUCAUAAGAUAUAGUCGGACCUCUCCUUAAUGGGAGCUAGCGGAUGAAGUGAUGCAACACUGGAGCCGCUGGGAACUAAUUUGUAUGCGAAAGUAUAUUGAUUAGUUUUGGAGUACUCGUGGUCG
How it was run: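 A randomised library covering all eight P1ex-region intron nucleotides was built with the intron in the knt kanamycin-resistance gene on pET-22b(+) and held in E. coli BL21(DE3). Cells were grown overnight at 37°C or 30°C on LB agar, with or without 25 μg/mL kanamycin, plus 100 μg/mL carbenicillin, 50 μM IPTG and 0.2% rhamnose, and pooled colonies were amplicon-sequenced on an Illumina HiSeq 2500. DiMSum fitness is the error-weighted combination of wild-type-normalised replicate fold changes, kanamycin versus none.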

Sequence	self-splicing fitness (ln) (30 °C)	self-splicing fitness (ln) (37 °C)
UCGAAGCAAUAUUACGGCUG	-1.98 ± 0.14	-0.494 ± 0.14
UCGAAGCAAUAUUACGGGUU	-4.87 ± 0.29	-1.47 ± 0.14
UCGAAGCAAUAUUACGGUAU	-3.58 ± 0.16	-1.73 ± 0.14
UCGAAGCAAUAUUACGGUUU	-3.83 ± 0.21	-2.72 ± 0.29
UCGAAGCAAUAUUACGUAAU	-3.88 ± 0.15	-1.62 ± 0.12
UCGAAGCAAUAUUACGUACG	-1.01 ± 0.082	0.00936 ± 0.11
UCGAAGCAAUAUUACGUCAA	-1.52 ± 0.11	-1.15 ± 0.1
UCGAAGCAAUAUUACGUCCA	-1.08 ± 0.13	-0.411 ± 0.14
UCGAAGCAAUAUUACGUCGG	-2.65 ± 0.17	-3.7 ± 0.31
UCGAAGCAAUAUUACGUGCG	-1.07 ± 0.086	-0.299 ± 0.1
UCGAAGCAAUAUUACGUGUC	–	-2.37 ± 0.37
UCGAAGCAAUAUUACGUUCU	-1.72 ± 0.091	-1.53 ± 0.13
UCGCAGCAAUAUUACGACGC	-1.81 ± 0.48	–
UCGCAGCAAUAUUACGAUUA	-1.06 ± 0.11	-0.805 ± 0.11
UCGCAGCAAUAUUACGCAAU	-2.15 ± 0.19	-2.92 ± 0.35
UCGCAGCAAUAUUACGCAUC	-2.52 ± 0.21	-1.57 ± 0.17
UCGCAGCAAUAUUACGCCGU	-3.48 ± 0.26	-2.99 ± 0.4
UCGCAGCAAUAUUACGCGAU	-2.55 ± 0.18	-2.97 ± 0.25
UCGCAGCAAUAUUACGCGGA	–	-2.29 ± 0.25
UCGCAGCAAUAUUACGCUAA	-1.96 ± 0.14	-1.72 ± 0.15
UCGCAGCAAUAUUACGCUCG	-3.23 ± 0.28	-1.61 ± 0.2
UCGCAGCAAUAUUACGGACA	-1.38 ± 0.17	-1.83 ± 0.14
UCGCAGCAAUAUUACGGCAA	-0.188 ± 0.079	0.0609 ± 0.11
UCGCAGCAAUAUUACGGCCC	–	-2.41 ± 0.41
UCGCAGCAAUAUUACGGGCU	-3.71 ± 0.17	-2.63 ± 0.16

Sequence	self-splicing fitness (ln) (30 °C)	self-splicing fitness (ln) (37 °C)
UCGCAGCAAUAUUACGGUCG	-0.126 ± 0.094	0.0192 ± 0.14
UCGCAGCAAUAUUACGUCAU	-3.77 ± 0.14	-2.65 ± 0.13
UCGCAGCAAUAUUACGUCGA	-1.81 ± 0.13	-2.03 ± 0.18
UCGCAGCAAUAUUACGUCGU	-1.95 ± 0.081	-0.965 ± 0.096
UCGCAGCAAUAUUACGUGAU	-2.2 ± 0.25	-3.26 ± 0.35
UCGCAGCAAUAUUACGUGGC	-3.81 ± 0.42	-2.45 ± 0.31
UCGCAGCAAUAUUACGUGGU	-3.38 ± 0.13	-3.24 ± 0.19
UCGCAGCAAUAUUACGUGUU	-2.49 ± 0.092	-1.67 ± 0.11
UCGCAGCAAUAUUACGUUAU	-3.3 ± 0.26	-2.51 ± 0.24
UCGCAGCAAUAUUACGUUUG	-2.89 ± 0.099	-1.09 ± 0.11
UCGGAGCAAUAUUACGAAAC	-2.87 ± 0.28	–
UCGGAGCAAUAUUACGAAUG	-4.16 ± 0.36	-2.15 ± 0.27
UCGGAGCAAUAUUACGAGCG	-2.48 ± 0.23	-0.586 ± 0.23
UCGGAGCAAUAUUACGAGUA	-3.11 ± 0.42	-1.89 ± 0.31
UCGGAGCAAUAUUACGAUAG	-3.29 ± 0.32	-2.83 ± 0.35
UCGGAGCAAUAUUACGCAAG	–	-2.23 ± 0.43
UCGGAGCAAUAUUACGCAGG	-2.57 ± 0.44	-2.28 ± 0.43
UCGGAGCAAUAUUACGCUGG	-3.78 ± 0.46	-1.26 ± 0.17
UCGGAGCAAUAUUACGGAGA	-3.67 ± 0.21	-1.49 ± 0.14
UCGGAGCAAUAUUACGGCUU	-3.05 ± 0.32	-1.45 ± 0.35
UCGGAGCAAUAUUACGGGUG	-3.03 ± 0.24	-2.94 ± 0.2
UCGGAGCAAUAUUACGGGUU	-2.86 ± 0.41	–
UCGGAGCAAUAUUACGGUAC	-3.19 ± 0.29	-3.59 ± 0.36
UCGGAGCAAUAUUACGGUUU	–	-1.87 ± 0.34
UCGGAGCAAUAUUACGUACU	–	-2.6 ± 0.34

Sequence	self-splicing fitness (ln) (30 °C)	self-splicing fitness (ln) (37 °C)
UCGGAGCAAUAUUACGUAGU	–	-0.551 ± 0.29
UCGGAGCAAUAUUACGUGAC	-1.95 ± 0.34	-2.14 ± 0.46
UCGGAGCAAUAUUACGUGGU	-3.59 ± 0.39	-1.72 ± 0.34
UCGUAGCAAUAUUACGAAGG	-3.63 ± 0.47	–
UCGUAGCAAUAUUACGAAUG	-2.01 ± 0.29	–
UCGUAGCAAUAUUACGACAU	-3.861 ± 0.035	-2.69 ± 0.043
UCGUAGCAAUAUUACGACUG	-1.02 ± 0.2	-2.28 ± 0.34
UCGUAGCAAUAUUACGAUAU	-3.38 ± 0.31	-1.85 ± 0.37
UCGUAGCAAUAUUACGAUGC	-4.1 ± 0.33	-2.27 ± 0.27
UCGUAGCAAUAUUACGCAAA	-3.4 ± 0.31	-1.09 ± 0.31
UCGUAGCAAUAUUACGCAUU	-3.24 ± 0.23	-1.84 ± 0.15
UCGUAGCAAUAUUACGCCUU	-2.21 ± 0.13	-0.619 ± 0.13
UCGUAGCAAUAUUACGGAAA	-3.38 ± 0.35	-2.72 ± 0.31
UCGUAGCAAUAUUACGGAUC	-3.32 ± 0.45	-2.85 ± 0.48
UCGUAGCAAUAUUACGGCAA	-2.52 ± 0.36	-0.888 ± 0.27
UCGUAGCAAUAUUACGGCGG	-2.41 ± 0.14	-0.883 ± 0.15
UCGUAGCAAUAUUACGGCGU	-3.46 ± 0.34	-1.6 ± 0.22
UCGUAGCAAUAUUACGGCUG	-3.29 ± 0.13	-1.38 ± 0.14
UCGUAGCAAUAUUACGGGCG	-2.12 ± 0.18	-1.11 ± 0.17
UCGUAGCAAUAUUACGUACA	-1.71 ± 0.24	-1.73 ± 0.26
UCGUAGCAAUAUUACGUACU	-2.04 ± 0.23	-1.27 ± 0.17
UCGUAGCAAUAUUACGUGCG	-2.44 ± 0.14	-0.347 ± 0.14
UCGUAGCAAUAUUACGUGGG	-3.54 ± 0.24	-3.92 ± 0.28
UCGUAGCAAUAUUACGUUAA	-1.59 ± 0.18	-1.16 ± 0.17
UCGUAGCAAUAUUACGUUCA	-1.39 ± 0.097	-0.421 ± 0.11

Sequence	self-splicing fitness (ln) (30 °C)	self-splicing fitness (ln) (37 °C)
UCUAAGCAAUAUUACGACAC	-3.7 ± 0.18	-2.82 ± 0.17
UCUAAGCAAUAUUACGACUG	-0.955 ± 0.17	-0.205 ± 0.23
UCUAAGCAAUAUUACGAGUU	-2.94 ± 0.2	-3.27 ± 0.28
UCUAAGCAAUAUUACGAUAG	-1.15 ± 0.07	-0.499 ± 0.1
UCUAAGCAAUAUUACGAUAU	-3.99 ± 0.4	-2.61 ± 0.34
UCUAAGCAAUAUUACGAUCU	-3.07 ± 0.23	-2.08 ± 0.2
UCUAAGCAAUAUUACGAUGC	-3.03 ± 0.18	-2.28 ± 0.21
UCUAAGCAAUAUUACGCAUU	-2.92 ± 0.21	-2.83 ± 0.28
UCUAAGCAAUAUUACGCCUG	-1.6 ± 0.13	-1.14 ± 0.2
UCUAAGCAAUAUUACGCCUU	-3.44 ± 0.36	-2.32 ± 0.27
UCUAAGCAAUAUUACGCGUU	-4.04 ± 0.34	-2.77 ± 0.38
UCUAAGCAAUAUUACGGCUU	-4.01 ± 0.37	-1.22 ± 0.26
UCUAAGCAAUAUUACGGGCU	-4.19 ± 0.4	-1.84 ± 0.3
UCUAAGCAAUAUUACGGGGC	–	-2.21 ± 0.32
UCUAAGCAAUAUUACGGUAA	-3.48 ± 0.36	-1.33 ± 0.19
UCUAAGCAAUAUUACGUGUA	-1.6 ± 0.12	-0.704 ± 0.1
UCUAAGCAAUAUUACGUGUU	-3.44 ± 0.14	-2.81 ± 0.13
UCUAAGCAAUAUUACGUUCU	-3.14 ± 0.22	-1.47 ± 0.14
UCUAAGCAAUAUUACGUUUA	–	-1.69 ± 0.37
UCUCAGCAAUAUUACGAAUG	-1.73 ± 0.15	-1.85 ± 0.26
UCUCAGCAAUAUUACGACCG	–	-1.07 ± 0.47
UCUCAGCAAUAUUACGAUCA	-0.104 ± 0.17	-0.219 ± 0.17
UCUCAGCAAUAUUACGAUGC	-3.28 ± 0.28	-2.55 ± 0.27
UCUCAGCAAUAUUACGCAGG	-4.14 ± 0.42	-2.28 ± 0.25
UCUCAGCAAUAUUACGGAUA	-1.12 ± 0.16	0.0308 ± 0.15

Reference: the supplement of paper PMC7877785
